# From patent US20190142971A1, “FORMULATION AND DELIVERY OF MODIFIED NUCLEOSIDE, NUCLEOTIDE, AND NUCLEIC ACID COMPOSITIONS” (ModernaTX, Inc., priority 2013, published 2019)
# B1: G-CSF: modified mRNA encoding human G-CSF, SEQ ID NO: 4, Cap1, fully modified with 5-methylcytosine and pseudouridine; LNP-formulated in Examples 16-22 (nucleic acid)
# chain: GGGAAAUAAGAGAGAAAAGAAGAGUAAGAAGAAAUAUAAGAGCCACCAUGGCCGGUCCCGCGACCCAAAGCCCCAUGAAACUUAUGGCCCUGCAGUUGCUGCUUUGGCACUCGGCCCUCUGGACAGUCCAAGAAGCGACUCCUCUCGGACCUGCCUCAUCGUUGCCGCAGUCAUUCCUUUUGAAGUGUCUGGAGCAGGUGCGAAAGAUUCAGGGCGAUGGAGCCGCACUCCAAGAGAAGCUCUGCGCGACAUACAAACUUUGCCAUCCCGAGGAGCUCGUACUGCUCGGGCACAGCUUGGGGAUUCCCUGGGCUCCUCUCUCGUCCUGUCCGUCGCAGGCUUUGCAGUUGGCAGGGUGCCUUUCCCAGCUCCACUCCGGUUUGUUCUUGUAUCAGGGACUGCUGCAAGCCCUUGAGGGAAUCUCGCCAGAAUUGGGCCCGACGCUGGACACGUUGCAGCUCGACGUGGCGGAUUUCGCAACAACCAUCUGGCAGCAGAUGGAGGAACUGGGGAUGGCACCCGCGCUGCAGCCCACGCAGGGGGCAAUGCCGGCCUUUGCGUCCGCGUUUCAGCGCAGGGCGGGUGGAGUCCUCGUAGCGAGCCACCUUCAAUCAUUUUUGGAAGUCUCGUACCGGGUGCUGAGACAUCUUGCGCAGCCGUGAAGCGCUGCCUUCUGCGGGGCUUGCCUUCUGGCCAUGCCCUUCUUCUCUCCCUUGCACCUGUACCUCUUGGUCUUUGAAUAAAGCCUGAGUAGGAAG
# modifications: Cap1, 5-methylcytosine, pseudouridine
# What was measured:
# [1] = tested on: peripheral blood mononuclear cells (PBMC); test: Example 56: PBMC IFN-alpha and TNF-alpha ELISA and protein/cytokine ratio (Tables 86, 87); type: cell-based, human
# Procedure: 480 ng of G-CSF mRNA modified with 5-methylcytosine (5mC) and pseudouridine (pseudoU) or unmodified G-CSF mRNA was transfected with 0.4 uL of Lipofectamine 2000 into peripheral blood mononuclear cells (PBMC) from three normal blood donors (D1, D2, and D3). […] The supernatant was harvested and run by ELISA 22 hours after transfection to determine the protein expression. The expression of IFN-alpha and TNF-alpha may be a secondary effect from the transfection of the G-CSF mRNA.
# As mentioned above, using PBMC as an in vitro assay system it is possible to establish a correlation between translation (in this case G-CSF protein production) and cytokine production (in this case exemplified by IFN-alpha protein production). Better protein production is correlated with lower induction of innate immune activation pathway, and the percentage modification of a chemistry can be judged favorably based on this ratio (Table 87).
# [2] = Example 61: storage stability of G-CSF mRNA, gel electrophoresis (Bio-Rad EXPERION); type: physicochemical
# Procedure: Stability experiments were conducted to obtain a better understanding of storage conditions to retain the integrity of modified RNA. […] After the mRNA had been stored for 0 hours, 2 hours, 6 hours, 24 hours, 48 hours, 5 days and 14 days, the mRNA was analyzed by gel electrophoresis using a Bio-Rad EXPERION™ system. The modified, unmodified and lipoplexed G-CSF mRNA was also stored in RNASTABLE® (Biomatrica, Inc. San Diego, Calif.) at 40° C. or water at −80° C. or 40° C. for 35 days before being analyzed by gel electrophoresis.
# mRNA samples stored at 4° C., 25° C. and 37° C. were stored in 1×TE buffer or the formulation buffer (150 mM sodium chloride, 2 mM calcium chloride, 2 mM phosphate, 0.5 mM EDTA at a pH of 6.5). The mRNA stored at 4° C. was stable to at least 60 days in both the TE and formulation buffer. At 25° C. the mRNA in formulation buffer was stable out to 14 days and the TE buffer was stable out to at least 6 days. Storage of mRNA in the formulation buffer at 37° C. was stable to 6 days compared to the TE buffer which was stable only until 4 days.
# [3] = tested on: C57/BL6 mice; test: Example 32B: human G-CSF lipoplex IM, SC, IV in mice, serum G-CSF ELISA at 6 hours (Table 56); type: in vivo; conditions: serum 6 hours after administration
# Procedure: 6 hours after administration of a formulation, serum was collected from each mouse to measure the amount of human G-CSF protein in the mouse serum by human G-CSF ELISA and the results are shown in Table 56.
# [4] = tested on: Sprague Dawley rats; test: Example 60: G-CSF/Factor IX mRNA IM in rats, serum G-CSF ELISA (Table 94); type: in vivo; conditions: I.M., 400 ug in 100 ul, 5% sucrose, 8 hours after injection
# Procedure: Protein production of modified mRNA was evaluated by delivering modified G-CSF mRNA or modified Factor IX mRNA to female Sprague Dawley rats (n=6). […] Blood was collected 8 hours after injection and the G-CSF protein level in serum was measured by ELISA.
# [5] = tested on: HEK293 cells; test: Example 46B: percent modification, HEK293 G-CSF ELISA (Table 75); type: cell-based, Human
molecule,measurement,setting,value
B1,protein/cytokine ratio vs natural G-CSF mRNA,[1]; IFN-alpha,100 fold
same,protein/cytokine ratio vs natural G-CSF mRNA,[1]; TNF-alpha,27 fold
same,freeze/thaw cycles tolerated,[2],12 cycles
same,stable out to,"[2]; stored at 25° C., with or without lipoplex",120 h
same,stable out to,[2]; stored at 37° C.,24 h
same,stable out to,[2]; stored at 50° C.,6 h
same,Human G-CSF in Serum,"[3]; I.M., 100 μg",85.6 pg/mL
same,Human G-CSF in Serum,"[3]; I.V., 100 μg (Luc-unsp 150 μg)",31.0 pg/mL
same,Human G-CSF in Serum,"[3]; S.C., 100 μg",3.9 pg/mL
same,G-CSF protein in rat serum,[4],19.37 pg/mL
same,half-life of mRNA,[5],8 to 10 h
